This is an account of results in patent publication US20100062984A1, “FGF-23 POLYPEPTIDES” (priority 2007, published 2010).

For one assay, the system named is Fgf-23−/− mice. As to the kind of experiment: Intraperitoneal injection into Fgf-23−/− mice, serum phosphate. The class given is in vivo, mouse. The method, then: To further examine the in vivo phosphaturic activity of the smallest FGF-23 fragment, 0.2 nmoles of FGF-23(180-205) polypeptide were injected twice intraperitoneally into Fgf-23^−/− mice. FGF-23 R176Q polypeptide was similarly injected into the mutant mice as a positive control, and saline was injected as a vehicle control. Fgf-23^−/− animals were generated as reported elsewhere (Sitara et al., Matrix Biol., 23:421-432 (2004)). To determine the in vivo effects of the C-terminal fragment FGF23(180-205) in the absence of endogenous FGF-23 activity, equimolar amounts (0.2 nmoles) of FGF-23 R176Q polypeptide, FGF-23(180-205) polypeptide, and vehicle (saline) were injected twice intraperitoneally into Fgf-23^−/− mice at 0 and 8 hours. Blood was obtained by tail bleeding or cheek pouch puncture of 3- to 6-week-old Fgf-23^−/− animals, 8 hours after the second injection (at 16 hours). Serum levels of phosphate were determined in pre- and post-injection mice using the Stanbio LiquiUV kit (Stanbio Laboratory, Boerne, Tex.).

The test system of the next assay is normal rats. The experiment in a line: Acute intravenous infusion of equimolar FGF-23 polypeptides in anesthetized rats, renal clearance. The class given is in vivo, rat. To be noted: for FENa (fractional excretion of sodium), control clearance / FEPi (fractional excretion of phosphate), control clearance: C = control clearance before infusion; for FENa (fractional excretion of sodium), control clearance / FEPi (fractional excretion of phosphate), control clearance / FENa (fractional excretion of sodium), experimental clearance / FEPi (fractional excretion of phosphate), experimental clearance: mean ± SE; for FENa (fractional excretion of sodium), experimental clearance / FEPi (fractional excretion of phosphate), experimental clearance: E = experimental clearance, i.v. infusion 1.24 nmol/kg/hour. The method, then: Male Sprague Dawley rats weighing 300 g were purchased from Harlan Sprague Dawley Inc. (Madison Wis.). They were fed a standard rodent diet containing 0.7% phosphate and 0.5% calcium. All animals were fasted overnight prior to the experiment. On the day of the experiment, rats were anesthetized with an intraperitoneal injection of 100-150 mg/kg body weight of 5-sec-butyl-ethyl-2-thiobarbituricacid (Inactin, Byk Gulden Konstanz, Hamburg, Germany). The rats were placed on a heated table to maintain body temperature between 36-38° C. After a tracheostomy, a PE 50 catheter was placed in the left carotid artery to monitor mean arterial blood pressure (MAP) and to collect blood samples. Catheters were also placed in the left and right jugular veins for infusions. A solution containing 2% inulin in 0.9% NaCl plus 4.5% BSA was infused at a rate of 1.2 mL/hour in one catheter, and 0.9% NaCl was infused in the other catheter at a rate of 1.2 mL/hour. A catheter (PE 90) was placed in the bladder for urine collection. Acute infusion studies were performed using the following seven different groups of animals.
Group 1: Vehicle Time control (n=8). After a ninety-minute recovery period, one […] urine sample was taken (C1) and a blood sample was taken. One hour later a second 60-minute clearance was taken (C2).
Group 2: Effect of acute infusion of full length FGF-23 polypeptide (1.24 nmol/kg/hour, n=8). This protocol is identical to group 1 except that after the control collections, full-length recombinant FGF-23 polypeptide was added to the 0.9% saline infusion to deliver 1.24 nmol/kg/hour of full length FGF-23 polypeptide. After one hour of infusion, a sixty-minute clearance was taken.
Group 3: Effect of acute infusion of FGF-23(176-251) polypeptide (1.24 nmol/kg/hour, n=8). This protocol is identical to group 2 except for the sequence of the infused polypeptide.
Group 4: Effect of acute infusion of FGF-23(180-251) polypeptide (1.24 nmol/kg/hour, n=8). This protocol is identical to group 2 except for the sequence of the infused polypeptide.
Group 5: Effect of infusion of FGF-23(184-251) polypeptide (1.24 nmol/kg/hour, n=8). This protocol is identical to group 2 except for the sequence of the infused polypeptide.
Group 6: Effect of infusion of FGF-23(206-251) polypeptide (1.24 nmol/kg/hour, n=6). This protocol is identical to group 2 except for the sequence of the infused polypeptide.
Group 7: Effect of infusion of FGF-23(180-205) polypeptide (1.24 nmol/kg/hour, n=6). This protocol is identical to group 2 except for the sequence of the infused polypeptide.
(§1) Plasma and urine phosphate concentrations were determined using the method of Chen (Chen et al., Anal Chem., 28:1756-1758 (1956)). Inulin concentrations in plasma and urine were determined using the anthrone method (Führ et al., Klin. Wochenschr., 33.:729-730 (1955)). Sodium concentrations in urine were determined by ion selective electrode (EasyLyte Plus Analyzer, Medica Corp., Bedford, Mass.). Calcium concentrations were measured using atomic absorption spectrometry (Kumar et al., Biochemistry, 15:2420-2423 (1976)) with a Perkin Elmer Model 3300 Atomic Absorption Spectrometer (Perkin Elmer, Boston, Mass.). Serum 1α,25(OH)2D concentrations were measured using an RIA kit (Diasorin, Stillwater, Minn.).
Statistically significant differences between groups were evaluated by Student's t-test for comparison between two groups or by one-way analysis of variance (ANOVA) followed by Tukey's test for multiple comparisons. All values were expressed as mean±SE. A p value less than 0.05 was considered to be statistically significant.

For another assay, the system named is rats. As to the kind of experiment: Chronic (72 hour) intraperitoneal administration in rats, serum phosphate and 1α,25(OH)2D. To be noted: chronic (72 hour) administration, i.p. every 12 hours for three days. The class given is in vivo, rat. The method, then: as §1
Chronic animal studies were performed to determine the effect of chronic (72 hour) administration of FGF-23(176-251) polypeptide (1.24 nmol/kg/hour, n=5) or vehicle (PBS+0.1% BSA, n=6) on serum phosphate and 1α, 25 (OH)2 D concentrations. Rats received an intraperitoneal injection of FGF-23(176-251) polypeptide in 0.5 mL of normal saline every 12 hours for three days. At the end of three days, the animals were anesthetized and a terminal blood sample was taken.

For assay [1], the system named is opossum proximal tubular epithelial cells (OK). As to the kind of experiment: OK cell Pi uptake assay. The class given is cell-based. The method, then: The OK cell Pi uptake assay was performed as described by Bowe et al. (Biochem Biophys Res Commun., 284:977-981 (2001)).
Another assay has as its system NaPi IIa-V5. As to the kind of experiment: Surface expression of V5-tagged Na+-Pi IIa transporter in OK cells (immunofluorescence). The class given is cell-based, opossum. To be noted: OK cells expressing V5-tagged transporter, three hour treatment. The method, then:
To assess the mechanism by which these agents altered phosphate transport, the surface expression of an epitope tagged sodium phosphate transporter, NaPi IIa-V5, was examined. An OK cell line stably expressing a VS-tagged Na+-Pi IIa transporter was generated as described elsewhere (Berndt et al., Pflugers Arch., 451:579-587 (2006)). The presence of the transporter on the cell surface of OK-N+-Pi-IIa-V5 cells was carried out using immunohistochemical methods and reagents described elsewhere (Berndt et al., Pflugers Arch., 451:579-587 (2006)).

[2] abbreviates: acute i.v. infusion of equimolar doses, rats.
The mark [3] stands for this setting: listed as full length recombinant FGF-23 polypeptide.

“And” between values parts separate entries of the source, which are not always exact repeats. Equal values may be shown once.

For the molecule “FGF-23(180-205): synthetic FGF-23 fragment, residues 180-205, SAEDDSERDPLNVLKPRARMTPAPAS, SEQ ID NO: 6 (listed as Homo sapiens)”, the “Serum phosphate level post-injection” value in the assay on Fgf-23−/− mice (0.2 nmoles i.p. at 0 and 8 hours, blood at 16 hours, p<0.01 vs pre-injection, in mg/dL (unit assumed)) turned out to be 10.95±0.62. The “Serum phosphate level pre-injection” value in the assay with Fgf-23−/− mice (before injection, in mg/dL (unit assumed)) was 14.64±0.51. Also, in the assay on normal rats, the “FENa (fractional excretion of sodium), control clearance” value was 0.4±0.1% and 0.39 ± 0.11%; the “FEPi (fractional excretion of phosphate), control clearance” value was determined as 10±2%; the “FENa (fractional excretion of sodium), experimental clearance” value was 1.0±0.2% and 1.01 ± 0.21 %; the “FEPi (fractional excretion of phosphate), experimental clearance” value was found to be 20±2%. Further, in the assay on normal rats (setting [2]), the “Effect on phosphate excretion (in words)” value was “increases phosphate excretion significantly”.
Turning to “FGF-23(206-251): synthetic FGF-23 fragment, residues 206-251, SEQ ID NO: 5 (CSQELPSAEDNSPMASDPLGVVRGGRVNTHAGGTGPEGCRPFAKFI; listed as Homo sapiens)”, in the assay on normal rats, the “FENa (fractional excretion of sodium), control clearance” value was 0.19 ± 0.04%; the “FEPi (fractional excretion of phosphate), control clearance” value is listed as 22 ± 5%; the “FENa (fractional excretion of sodium), experimental clearance” value is 0.22 ± 0.05^ %; the “FEPi (fractional excretion of phosphate), experimental clearance” value is given as 29 ± 2^ %. Also, in the assay with normal rats (setting [2]), the “Effect on phosphate excretion (in words)” value is “did not increase” and the “Effect on sodium excretion (in words)” value is recorded as “did not increase”.

B1: FGF-23(176-251): synthetic FGF-23 fragment, residues 176-251, SEQ ID NO: 2 (peptide, listed as Homo sapiens)
chain: RHTRSAEDDSERDPLNVLKPRARMTPAPASCSQELPSAEDNSPMASDPLGVVRGGRVNTHAGGTGPEGCRPFAKFI
Regarding B1, the Serum phosphate concentration in the assay with rats (vehicle 2.19±0.11 mM, p=0.062) is 1.85 ± 0.12 mM. The “Serum 1α,25(OH)2D concentration” value with rats (vehicle 114±7 pg/mL, p<0.05) came out at 76 ± 11 pg/mL. Besides, the “Effect on serum Pi concentrations (in words)” value with Fgf-23−/− mice (given intraperitoneally) is listed as “reduced”. For the same molecule, in the assay with normal rats, the “FENa (fractional excretion of sodium), control clearance” value is 0.90±0.15% and 0.87 ± 0.15%; the “FEPi (fractional excretion of phosphate), control clearance” value is 15±2%; the “FENa (fractional excretion of sodium), experimental clearance” value came out at 1.21±0.17%; the “FEPi (fractional excretion of phosphate), experimental clearance” value is 33±2%.

B2: FGF-23(184-251): synthetic FGF-23 fragment, residues 184-251, SEQ ID NO: 4 (peptide, listed as Homo sapiens)
chain: DSERDPLNVLKPRARMTPAPASCSQELPSAEDNSPMASDPLGVVRGGRVNTHAGGTGPEGCRPFAKFI
For B2, in the assay with normal rats, the “FENa (fractional excretion of sodium), control clearance” value was 0.3±0.1% and 0.27 ± 0.09%; the “FEPi (fractional excretion of phosphate), control clearance” value was 16±3%; the “FENa (fractional excretion of sodium), experimental clearance” value was 0.6±0.16% and 0.63 ± 0.16 %; the “FEPi (fractional excretion of phosphate), experimental clearance” value was 28±3%. Also, the “Effect on phosphate excretion (in words)” value in the assay with normal rats (setting [2]) was “increases phosphate excretion significantly”.

B3: FGF-23(25-251): full-length recombinant human FGF-23(25-251) polypeptide expressed in E. coli, SEQ ID NO: 1 (protein, listed as Homo sapiens)
chain: YPNASPLLGSSWGGLIHLYTATARNSYHLQIHKNGHVDGAPHQTIYSALMIRSEDAGFVVITGVMSRRYLCMDFRGNIFGSHYFDPENCRFQHQTLENGYDVYHSPQYHFLVSLGRAKRAFLPGMNPPPYSQFLSRRNEIPLIHFNTPIPRRHTRSAEDDSERDPLNVLKPRARMTPAPASCSQELPSAEDNSPMASDPLGVVRGGRVNTHAGGTGPEGCRPFAKFI
Consider B3, for which the “Radiolabeled phosphorus uptake (in words)” value in assay [1] was “directly inhibited”. For the same molecule, the “Amount of NaPiIIa-V5 detected on the cell surface (in words)” value in the assay with NaPi IIa-V5 is “significant decreases”. In addition, in the assay with normal rats (listed as FGF-23 Full Length), the “FENa (fractional excretion of sodium), control clearance” value worked out at 0.26 ± 0.14%; the “FEPi (fractional excretion of phosphate), control clearance” value was 14 ± 3%; the “FENa (fractional excretion of sodium), experimental clearance” value was determined as 0.76 ± 0.15 %; the “FEPi (fractional excretion of phosphate), experimental clearance” value was determined as 32 ± 5 %. Besides, in the assay with normal rats (setting [3]), the “FENa (fractional excretion of sodium), control clearance” value was 0.3±0.1%; the “FEPi (fractional excretion of phosphate), control clearance” value is 14±3%; the “FENa (fractional excretion of sodium), experimental clearance” value is on record as 0.7±0.2%; the “FEPi (fractional excretion of phosphate), experimental clearance” value was 32±5%. The “FE Ca after infusion” value with normal rats (acute i.v. infusion 1.24 nmol/kg/hour) is 10.0±2.3%. Besides, the “FE Ca before infusion” value in the assay with normal rats (control period before infusion) worked out at 4.1±1.2%.

B4: FGF-23(180-251): synthetic FGF-23 fragment, residues 180-251, SEQ ID NO: 3 (peptide, listed as Homo sapiens)
chain: SAEDDSERDPLNVLKPRARMTPAPASCSQELPSAEDNSPMASDPLGVVRGGRVNTHAGGTGPEGCRPFAKFI
Regarding B4, the “Radiolabeled phosphorus uptake (in words)” value in assay [1] is listed as “directly inhibited”. Moreover, the “Amount of NaPiIIa-V5 detected on the cell surface (in words)” value with NaPi IIa-V5 was “significant decreases”. In the assay on normal rats, the “FENa (fractional excretion of sodium), control clearance” value was 0.20±0.07% and 0.17 ± 0.07%; the “FEPi (fractional excretion of phosphate), control clearance” value turned out to be 14±3%; the “FENa (fractional excretion of sodium), experimental clearance” value is 0.80±0.17% and 0.76 ± 0.17 %; the “FEPi (fractional excretion of phosphate), experimental clearance” value came to 26±3%. The “Effect on phosphate excretion (in words)” value with normal rats (setting [2]) is listed as “increases phosphate excretion significantly”.
